Values quoted from earlier work, collected in publication PMC11866742.

Molecular target: SIRPα (Homo sapiens) (UniProt P78324)
UniProt P78324, sequence (P78324 31-373): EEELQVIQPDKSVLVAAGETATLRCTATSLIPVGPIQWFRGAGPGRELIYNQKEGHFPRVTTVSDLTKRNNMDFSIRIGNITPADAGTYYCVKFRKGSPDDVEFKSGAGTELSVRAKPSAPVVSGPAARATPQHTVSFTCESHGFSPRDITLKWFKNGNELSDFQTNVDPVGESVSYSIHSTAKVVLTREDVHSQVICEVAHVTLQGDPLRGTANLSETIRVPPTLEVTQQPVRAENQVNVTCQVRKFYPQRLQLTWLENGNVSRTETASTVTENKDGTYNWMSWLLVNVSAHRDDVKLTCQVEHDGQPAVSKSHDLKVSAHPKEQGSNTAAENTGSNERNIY

- Kd: 1500 nM
Substance: CD47 (from UniProt Q08722)
